Paper PMC5302901

Target: Grb2 (UniProt Q07883)
Experiment: IP of Grb2, blot for CD22
Details: reference: CD22-WT; sites Y773,Y783,Y828,Y843,Y863

## CD22 (from UniProt P35329) F1/2/4/5/6
  binding against the reference: lost
